The record followed here is US20190336574A1 (TRUSTEES OF PRINCETON UNIVERSITY, published 2019).

In experiment [1] the target is T1, HA-SND1 Δ39-43, full-length human (human, UniProt Q7KZF4 1-910).
T1 construct: also called 439-43
T1 sequence: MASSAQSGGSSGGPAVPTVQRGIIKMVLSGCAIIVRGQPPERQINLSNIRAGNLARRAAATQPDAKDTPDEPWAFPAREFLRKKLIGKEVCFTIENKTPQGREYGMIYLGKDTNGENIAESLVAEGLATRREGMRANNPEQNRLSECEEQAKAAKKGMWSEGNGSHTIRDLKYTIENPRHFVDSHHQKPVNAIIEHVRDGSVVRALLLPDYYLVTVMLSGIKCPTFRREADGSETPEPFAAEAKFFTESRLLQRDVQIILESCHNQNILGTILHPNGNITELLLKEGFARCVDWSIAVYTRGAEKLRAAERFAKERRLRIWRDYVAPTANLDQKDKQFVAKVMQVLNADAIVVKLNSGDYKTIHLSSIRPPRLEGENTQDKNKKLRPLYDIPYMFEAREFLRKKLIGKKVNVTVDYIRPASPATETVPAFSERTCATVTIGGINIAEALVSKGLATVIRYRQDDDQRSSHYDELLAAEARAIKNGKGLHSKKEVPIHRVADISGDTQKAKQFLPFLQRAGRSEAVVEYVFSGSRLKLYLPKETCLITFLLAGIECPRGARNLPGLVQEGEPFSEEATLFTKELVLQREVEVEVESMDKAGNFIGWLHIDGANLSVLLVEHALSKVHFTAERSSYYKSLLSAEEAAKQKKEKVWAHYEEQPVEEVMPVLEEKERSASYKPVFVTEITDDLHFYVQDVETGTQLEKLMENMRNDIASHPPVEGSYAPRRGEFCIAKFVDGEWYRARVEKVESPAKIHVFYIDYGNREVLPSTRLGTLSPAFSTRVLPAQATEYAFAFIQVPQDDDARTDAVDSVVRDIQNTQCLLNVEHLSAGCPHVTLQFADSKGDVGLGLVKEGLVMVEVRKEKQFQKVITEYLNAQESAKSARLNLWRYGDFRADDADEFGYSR
The experiment in a line: co-IP (anti-Myc) from HEK293T lysates, western blot. On the technique in general: A western blot detects proteins with antibodies after separation by electrophoresis.

Experiment [2] concerns the target T2, HA-SND1 R255E, full-length human (human, UniProt Q7KZF4 1-910).
T2 construct: Full-length, HA-tagged
T2 sequence: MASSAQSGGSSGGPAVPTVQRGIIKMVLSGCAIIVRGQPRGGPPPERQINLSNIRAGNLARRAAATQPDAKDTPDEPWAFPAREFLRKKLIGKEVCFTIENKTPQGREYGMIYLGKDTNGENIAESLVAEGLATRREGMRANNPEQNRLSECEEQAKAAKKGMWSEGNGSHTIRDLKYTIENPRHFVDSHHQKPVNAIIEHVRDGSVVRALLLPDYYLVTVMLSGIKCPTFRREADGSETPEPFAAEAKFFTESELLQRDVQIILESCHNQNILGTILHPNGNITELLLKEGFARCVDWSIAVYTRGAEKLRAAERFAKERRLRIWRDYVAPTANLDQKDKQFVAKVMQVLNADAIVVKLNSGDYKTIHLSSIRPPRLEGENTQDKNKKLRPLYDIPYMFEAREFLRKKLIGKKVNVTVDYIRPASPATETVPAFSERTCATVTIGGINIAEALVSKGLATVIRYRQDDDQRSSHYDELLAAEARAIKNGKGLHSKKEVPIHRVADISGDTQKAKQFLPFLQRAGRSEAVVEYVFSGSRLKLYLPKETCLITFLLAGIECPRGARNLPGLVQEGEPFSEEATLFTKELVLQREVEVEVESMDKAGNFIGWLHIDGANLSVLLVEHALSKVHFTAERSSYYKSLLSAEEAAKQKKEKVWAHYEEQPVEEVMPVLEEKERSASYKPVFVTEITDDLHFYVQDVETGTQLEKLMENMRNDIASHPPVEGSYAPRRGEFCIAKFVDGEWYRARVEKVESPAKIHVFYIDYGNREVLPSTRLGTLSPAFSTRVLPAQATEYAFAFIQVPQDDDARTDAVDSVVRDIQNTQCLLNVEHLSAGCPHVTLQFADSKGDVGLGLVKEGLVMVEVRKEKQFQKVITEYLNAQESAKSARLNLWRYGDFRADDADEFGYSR
The experiment is described as above.

B1: Myc-MTDH, full-length human, wild type (other)
chain: MAARSWQDELAQQAEEGSARLREMLSVGLGFLRTELGLDLGLEPKRYPGWVILVGTGALGLLLLFLLGYGWAAACAGSRKKRRSPPRKREEAAAVPAAAPDDLALLKNLRSEEQKKKNRKKLSEKPKPNGRTVEVAEGEAVRTPQSVTAKQPPEIDKKNEKSKKNKKKSKSDAKAVQNSSRHDGKEVDEGAWETKISHREKRQQRKRDKVLTDSGSLDSTIPGIENTITVTTEQLTTASFPVGSKKNKGDSHLNVQVSNFKSGKGDSTLQVSSGLNENLTVNGGGWNEKSVKLSSQISAGEEKWNSVSPASAGKRKAEPSAWSQDTGDANTNGKDWGRSWSDRSIFSGIGSTAEPVSQSTTSDYQWDVSRNQPYIDDEWSGLNGLSSADPNSDWNAPAEEWGNWVDEERASLLKSQEPIPDDQKVSDDDKEKGEGALPTGKSKKKKKKKKKQGEDNSTAQDTEELEKEIREDLPVNTSKTRPKQEKAFSLKTISTSDPAEVLVKNSQPIKTLPPATSTEPSVILSKSDSDKSSSQVPPILQETDKSKSNTKQNSVPPSQTKSETSWESPKQIKKKKKARRET
notes: Full-length, Myc-tagged; Expressed in HEK293T cells, tested in lysate; also called Myc-tagged MTDH; WT Myc-MTDH
As to B1, the binding result in experiment [1] and in experiment [2] was “no binding” each time.
